Reference: PMC3787081, “The Heteromultimeric Debranching Enzyme Involved in Starch Synthesis in Arabidopsis Requires Both Isoamylase1 and Isoamylase2 Subunits for Complex Stability and Activity” (PLoS ONE, 2013)

Target: T1, ISA2-TAP (ISA2 with a C-terminal tandem affinity purification tag) (Arabidopsis, UniProt Q8L735 71-882)
T1 construct: Isoamylase 2 (ISA2) of Arabidopsis thaliana; the chloroplast transit peptide is probably removed in the plant (surmised); also called TAP-tagged ISA2; ISA2-TAP tagged protein; source: Arabidopsis isa2-1 plants transformed with 35S::ISA2-TAP, leaf extract
T1 sequence (looked up): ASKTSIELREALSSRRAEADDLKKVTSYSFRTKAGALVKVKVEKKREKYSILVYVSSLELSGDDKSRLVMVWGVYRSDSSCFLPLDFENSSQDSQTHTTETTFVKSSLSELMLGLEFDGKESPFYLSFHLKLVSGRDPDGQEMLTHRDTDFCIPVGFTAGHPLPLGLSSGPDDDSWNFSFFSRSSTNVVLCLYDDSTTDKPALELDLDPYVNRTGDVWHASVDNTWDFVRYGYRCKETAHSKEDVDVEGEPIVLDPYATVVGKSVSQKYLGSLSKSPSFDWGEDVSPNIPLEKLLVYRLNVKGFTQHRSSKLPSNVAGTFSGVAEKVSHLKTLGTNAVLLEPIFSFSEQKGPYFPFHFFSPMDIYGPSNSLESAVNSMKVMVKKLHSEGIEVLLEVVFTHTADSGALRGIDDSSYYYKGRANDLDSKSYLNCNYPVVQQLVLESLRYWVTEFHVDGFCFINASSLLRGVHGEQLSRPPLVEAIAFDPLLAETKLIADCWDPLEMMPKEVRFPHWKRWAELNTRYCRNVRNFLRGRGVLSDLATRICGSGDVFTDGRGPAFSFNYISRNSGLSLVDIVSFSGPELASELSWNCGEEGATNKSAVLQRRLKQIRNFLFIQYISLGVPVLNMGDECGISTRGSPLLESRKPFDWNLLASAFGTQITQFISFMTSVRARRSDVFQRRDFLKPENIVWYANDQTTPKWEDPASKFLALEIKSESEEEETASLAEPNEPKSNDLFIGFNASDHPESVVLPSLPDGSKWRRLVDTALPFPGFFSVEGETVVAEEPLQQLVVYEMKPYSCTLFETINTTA
Assay: affinity purification with mass spectrometry; tandem affinity purification of ISA2-TAP from leaf extracts (IgG-Sepharose, TEV elution, Calmodulin Sepharose with 2 mM CaCl2, EGTA elution); SDS-PAGE, silver stain, in-gel tryptic digestion, LC-MS/MS; wild-type extracts as control
Details: partners not purified

B1: Isoamylase1 (ISA1), Arabidopsis, endogenous (enzyme, UniProt O04196 44-783, looked up)
chain: AKDRRSNEAENIAVVEKPLKSDRFFISDGLPSPFGPTVRDDGVNFSVYSTNSVSATICLISLSDLRQNKVTEEIQLDPSRNRTGHVWHVFLRGDFKDMLYGYRFDGKFSPEEGHYYDSSNILLDPYAKAIISRDEFGVLGPDDNCWPQMACMVPTREEEFDWEGDMHLKLPQKDLVIYEMHVRGFTRHESSKIEFPGTYQGVAEKLDHLKELGINCIELMPCHEFNELEYYSYNTILGDHRVNFWGYSTIGFFSPMIRYASASSNNFAGRAINEFKILVKEAHKRGIEVIMDVVLNHTAEGNEKGPIFSFRGVDNSVYYMLAPKGEFYNYSGCGNTFNCNHPVVRQFILDCLRYWVTEMHVDGFRFDLGSIMSRSSSLWDAANVYGADVEGDLLTTGTPISCPPVIDMISNDPILRGVKLIAEAWDAGGLYQVGMFPHWGIWSEWNGKFRDVVRQFIKGTDGFSGAFAECLCGSPNLYQGGRKPWHSINFICAHDGFTLADLVTYNNKNNLANGEENNDGENHNYSWNCGEEGDFASISVKRLRKRQMRNFFVSLMVSQGVPMIYMGDEYGHTKGGNNNTYCHDNYMNYFRWDKKEEAHSDFFRFCRILIKFRDECESLGLNDFPTAKRLQWHGLAPEIPNWSETSRFVAFSLVDSVKKEIYVAFNTSHLATLVSLPNRPGYRWEPFVDTSKPSPYDCITPDLPERETAMKQYRHFLDANVYPMLSYSSIILLLSPIKDP
notes: Isoamylase 1 (ISA1) of Arabidopsis thaliana, endogenous protein in soluble leaf extracts; Chloroplast protein; also called AtISA1; source: endogenous, Arabidopsis leaf extracts (wild type and ISA2-TAP plants)
stoichiometry N: 1
